Laboratory results: patent US7157568B1, “Human estrogen receptor-β” (American Home Products Corporation, priority 1997, dated 2007)

B1: hERβL: full-length human estrogen receptor-β of 530 amino acid residues, SEQ ID NO:2 (protein)
chain: MDIKNSPSSLNSPSSYNCSQSILPLEHGSIYIPSSYVDSHHEYPAMTFYSPAVMNYSIPSNVTNLEGGPGRQTTSPNVLWPTPGHLSPLVVHRQLSHLYAEPQKSPWCEARSLEHTLPVNRETLKRKVSGNRCASPVTGPGSKRDAHFCAVCSDYASGYHYGVWSCEGCKAFFKRSIQGHNDYICPATNQCTIDKNRRKSCQACRLRKCYEVGMVKCGSRRERCGYRLVRRQRSADEQLHCAGKAKRSGGHAPRVRELLLDALSPEQLVLTLLEAEPPHVLISRPSAPFTEASMMMSLTKLADKELVHMISWAKKIPGFVELSLFDQVRLLESCWMEVLMMGLMWRSIDHPGKLIFAPDLVLDRDEGKCVEGILEIFDMLLATTSRFRELKLQHKEYLCVKAMILLNSSMYPLVTATQDADSSRKLAHLLNAVTDALVWVIAKSGISSQQQSMRLANLLMLLSHVRHASNKGMEHLLNMKCKNVVPVYDLLLEMLNAHVLRGCKSSITGSECSPAEDSKSKEGSQNPQSQ
modifications: Human
B2: hERβT: truncated human estrogen receptor-β lacking the first 45 amino acids (Clone 3) (protein, UniProt Q92731 46-530, looked up, fragment)
chain: MTFYSPAVMNYSIPSNVTNLEGGPGRQTTSPNVLWPTPGHLSPLVVHRQLSHLYAEPQKSPWCEARSLEHTLPVNRETLKRKVSGNRCASPVTGPGSKRDAHFCAVCSDYASGYHYGVWSCEGCKAFFKRSIQGHNDYICPATNQCTIDKNRRKSCQACRLRKCYEVGMVKCGSRRERCGYRLVRRQRSADEQLHCAGKAKRSGGHAPRVRELLLDALSPEQLVLTLLEAEPPHVLISRPSAPFTEASMMMSLTKLADKELVHMISWAKKIPGFVELSLFDQVRLLESCWMEVLMMGLMWRSIDHPGKLIFAPDLVLDRDEGKCVEGILEIFDMLLATTSRFRELKLQHKEYLCVKAMILLNSSMYPLVTATQDADSSRKLAHLLNAVTDALVWVIAKSGISSQQQSMRLANLLMLLSHVRHASNKGMEHLLNMKCKNVVPVYDLLLEMLNAHVLRGCKSSITGSECSPAEDSKSKEGSQNPQSQ

Tests used:
Assay type in all cases: cell-based
[1] = tested on: ERE (ERE.TK.LUC reporter) in HepG2 cells; test: ERE-luciferase reporter transactivation in transfected HepG2 cells; settings: in the presence of estradiol
Procedure: FIG. 6A is a graphic illustration of the transcriptional activation capacity of full-length hERβ (hERβL) and truncated hERβ (hERβT) expressed in HepG2 cells. Cells were transfected with either hERβL or hERβT and co-transfected with a luciferase reporter plasmid containing an estrogen response element (ERE) (ERE.TK.LUC) and a control β-galactosidase plasmid. Cells were incubated in the absence or presence of estradiol, after which luciferase activity was measured and normalized to β-galactosidase activity. FIG. 6B is a graphic illustration of luciferase activity in HepG2 cells transfected with either hERβL or hERβT and co-transfected with a luciferase reporter plasmid lacking an ERE (TK.LUC)
HepG2 cells (ATCC) were transfected in parallel with either pcDNA3-hERβL or pcDNA3-hERβT using the calcium phosphate co-precipitation method. Cells were co-transfected with a reporter plasmid containing a luciferase gene preceded by either an ERE upstream of the thymidine kinase (TK) basal promoter, or the TK basal promoter alone. […] Luciferase activity was measured by a chemiluminescent method using the Promega luciferase assay system, and β-galactosidase activity was measured by Galactolight (Tropix, Inc., Bedford Mass.); luciferase activity was then normalized to β-galactosidase activity.

[2] = tested on: ERE-reporter gene in HAECT-1 cells; test: ERE-luciferase reporter transactivation in HAECT-1 human endothelial cells; settings: 100 nM 17-β estradiol overnight
Procedure: FIG. 8 is a graphic illustration of the transcriptional activation capacity of full-length hERβ (hERβL) and truncated hERβ (hERβT) expressed in HAECT-1 human endothelial cells. Cells were transfected with either hERβL or hERβT and co-transfected with a luciferase reporter plasmid containing an ERE (ERE.TK.LUC) or one lacking an ERE (TK.LUC). Cells were incubated in the absence or presence of estradiol, after which luciferase activity was measured. ERE TK.LUC values were normalized to TK.LUC values and are presented as mean±S.E. (n=4).
HAECT-1 cells (a clonal immortalized human aortic endothelia cell line derived by infection with Ad5 ori-SV40 ts A209) were transfected with pcDNA3hERβT or pcDNA3-hERβL and ERE-luciferase plasmids by electroporation. After 4 hours, the cells were treated overnight with or without 100 nM 17-β estradiol prior to luciferase activity measurements. […] In independent experiments, cells transfected under identical conditions were monitored for their levels of estrogen receptors using a ligand binding assay.

[3] = tested on: ERE-LacZ reporter (YRpE2) in S. cerevisiae strain BJ2168; test: ERE-LacZ reporter assay in yeast; settings: 17-β estradiol or Genistein for 3 hours
[4] = tested on: NFkB binding site reporter (3x-NFkB TK.LUC) in HepG2 cells; test: NFkB-luciferase reporter assay in IL-1β-stimulated transfected HepG2 cells; settings: IL-1β and estradiol
Procedure: FIG. 7A is a graphic illustration of the effect of estradiol stimulation of full-length hERβ (hERβL) and truncated hERβ (hERβT) on NFkB activation in HepG2 cells. Cells were transfected with either hERβL or hERβT and co-transfected with a luciferase reporter plasmid containing three copies of an NFkB binding site (3×-NFkB TK.LUC) and a control β-galactosidase plasmid. Cells were stimulated with interleukin-1β and incubated in the absence or presence of estradiol, after which luciferase activity was measured and normalized to β-galactosidase activity. FIG. 7B is a graphic illustration of luciferase activity in cells transfected with either hERβL or hERβT and co-transfected with a luciferase reporter plasmid lacking an NFkB binding site (TK.LUC).
In a separate experiment, HepG2 cells were transfected with hERβT or […] as above, but the reporter gene consisted of three copies of an NFkB binding site upstream of the TK basal promoter. Transfected cells were incubated with or without interleukin-1β (IL-1β) to activate NFkB and/or with estradiol prior to luciferase determination.

Molecule | activity relative to hERβT (ERE activity) [1] | activity in activating the ERE-reporter gene relative to hERβT [2] | maximal level of estrogen-stimulated LacZ expression relative to hERβT-transformed cells [3] | attenuation of IL-1β-mediated NFkB transcriptional activation [4]
B1 | about 3 fold | 2–3 times | 2 fold | capable of attenuating
B2 |  |  |  | no inhibitory activity
